Our source for the Kd values is article PMC11620640 (2024).

Test [1] concerns the target T1, SARS-CoV-2 prototype (PT) spike receptor binding domain (RBD) (SARS-CoV-2, UniProt P0DTC2 319-541). Nature of the test: SPR. For orientation: Surface plasmon resonance follows binding to a sensor surface in real time, without labels.
The target in test [2] is T1, SARS-CoV-2 prototype (PT) spike …. The experiment in a line: SPR. The source holds these as a separate data set.

Read-outs that look alike come from different tables or passages of the source.

B1: raccoon dog ACE2 (rdACE2), peptidase domain (PD), wild type (receptor)
chain: QSTEDLVNTFLEKFNYEAEELSYQSSLASWNYNTNITDENLQKMNNAGAKWSAFYEEQSKLAKTYPLEEIQDSTVKRQLRALQHSGSSVLSADKNQRLNTILNSMSTIYSTGKACNPSNPQECLLLEPGLDDIMENSKDYNERLWAWEGWRSEVGKQLRPLYEEYVALKNEMARANNYEDYGDYWRGDYEEEWENGYNYSRNQLIDDVEHTFTQIMPLYQHLHAYVRTKLMDTYPSYISPTGCLPAHLLGDMWGRFWTNLYPLTVPFGQKPNIDVTNAMVNQSWDARKIFKEAEKFFVSVGLPNMTQGFWENSMLTEPSDSWKVVCHPTAWDLGRGDFRIKMCTKVTMDDFLTAHHEMGHIQYDMAYAAQPFLLRNGANEGFHEAVGEIMSLSAATPNHLKNIGLLPPSFFEDSETEINFLLKQALTIVGTLPFTYMLEKWRWMVFKGEIPKDQWMKTWWEMKRNIVGVVEPVPHDETYCDPASLFHVANDYSFIRYYTRTIYQFQFQEALCQIAKHEGPLHKCDISNSSEAGQKLLEMLKLGKSKPWTYALEIVVGAKNMDVRPLLNYFEPLFTWLKEQNRNSFVGWNTDWSPYADQS
As to B1, the Kd – broadly, the constant that tells how readily two partners part at equilibrium – in test [1] worked out at 70.7 nM; in test [2], 87.4 nM.
